Measurements as given in IntAct's records for PubMed 29892012.

Legend:
dcor_human ODC1 = molecular target: T1, dcor_human ODC1 (UniProt P11926)
T1 sequence: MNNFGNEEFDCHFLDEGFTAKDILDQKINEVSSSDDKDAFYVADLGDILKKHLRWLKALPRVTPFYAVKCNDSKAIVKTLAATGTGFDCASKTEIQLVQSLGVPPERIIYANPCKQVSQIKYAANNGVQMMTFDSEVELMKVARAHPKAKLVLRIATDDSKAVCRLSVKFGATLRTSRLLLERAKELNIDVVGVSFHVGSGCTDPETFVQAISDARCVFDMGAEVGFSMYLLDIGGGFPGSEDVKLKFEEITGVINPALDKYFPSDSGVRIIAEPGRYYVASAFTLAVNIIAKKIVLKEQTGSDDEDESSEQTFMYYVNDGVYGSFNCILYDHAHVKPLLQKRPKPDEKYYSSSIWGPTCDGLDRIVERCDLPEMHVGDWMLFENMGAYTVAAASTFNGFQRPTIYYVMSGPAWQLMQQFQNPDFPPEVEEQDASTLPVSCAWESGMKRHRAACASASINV

pde9a_human PDE9A = pde9a_human PDE9A (UniProt O76083)
rpia_human RPIA = rpia_human RPIA (UniProt P49247)
pnma5_human PNMA5 = pnma5_human PNMA5 (UniProt Q96PV4)
kctd9_human KCTD9 = molecular target: T2, kctd9_human KCTD9 (UniProt Q7L273)
T2 sequence: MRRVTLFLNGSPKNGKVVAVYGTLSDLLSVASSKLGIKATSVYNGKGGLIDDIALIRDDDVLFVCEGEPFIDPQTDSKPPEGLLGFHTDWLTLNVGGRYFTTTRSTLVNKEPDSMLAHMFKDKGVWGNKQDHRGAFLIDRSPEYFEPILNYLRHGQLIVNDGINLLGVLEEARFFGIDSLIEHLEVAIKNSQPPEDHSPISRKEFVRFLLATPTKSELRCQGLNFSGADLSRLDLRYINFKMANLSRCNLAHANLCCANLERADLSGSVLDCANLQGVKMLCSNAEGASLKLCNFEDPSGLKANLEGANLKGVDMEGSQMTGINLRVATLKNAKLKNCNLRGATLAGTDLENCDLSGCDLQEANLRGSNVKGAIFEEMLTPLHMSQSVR

zmat1_human ZMAT1 = zmat1_human ZMAT1 (UniProt Q5H9K5)
traf4_human TRAF4 = molecular target: T3, traf4_human TRAF4 (UniProt Q9BUZ4)
T3 sequence: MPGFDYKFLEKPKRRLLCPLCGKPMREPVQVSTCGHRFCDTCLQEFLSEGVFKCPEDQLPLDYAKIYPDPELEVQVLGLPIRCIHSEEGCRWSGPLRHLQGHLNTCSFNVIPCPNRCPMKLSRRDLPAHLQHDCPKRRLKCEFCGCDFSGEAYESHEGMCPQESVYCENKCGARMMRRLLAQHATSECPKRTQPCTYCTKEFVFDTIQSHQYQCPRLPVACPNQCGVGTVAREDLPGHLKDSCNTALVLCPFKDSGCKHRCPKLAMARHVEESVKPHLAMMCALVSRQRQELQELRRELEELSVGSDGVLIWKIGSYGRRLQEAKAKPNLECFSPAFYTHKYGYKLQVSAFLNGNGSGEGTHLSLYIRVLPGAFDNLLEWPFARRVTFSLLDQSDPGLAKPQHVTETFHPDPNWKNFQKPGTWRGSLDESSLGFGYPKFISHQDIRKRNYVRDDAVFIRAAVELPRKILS

ei2ba_human EIF2B1 = molecular target: T4, ei2ba_human EIF2B1 (UniProt Q14232)
T4 sequence: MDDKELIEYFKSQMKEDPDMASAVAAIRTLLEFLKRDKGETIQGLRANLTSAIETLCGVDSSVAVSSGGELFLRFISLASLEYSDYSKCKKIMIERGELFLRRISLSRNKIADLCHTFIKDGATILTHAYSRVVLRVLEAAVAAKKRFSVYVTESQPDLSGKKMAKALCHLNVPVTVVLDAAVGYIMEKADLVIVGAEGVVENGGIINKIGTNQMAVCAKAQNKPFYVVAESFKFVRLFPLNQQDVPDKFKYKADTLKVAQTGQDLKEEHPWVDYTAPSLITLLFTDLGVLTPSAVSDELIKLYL

trim1_human MID2 = molecular target: T5, trim1_human MID2 (UniProt Q9UJV3)
T5 sequence: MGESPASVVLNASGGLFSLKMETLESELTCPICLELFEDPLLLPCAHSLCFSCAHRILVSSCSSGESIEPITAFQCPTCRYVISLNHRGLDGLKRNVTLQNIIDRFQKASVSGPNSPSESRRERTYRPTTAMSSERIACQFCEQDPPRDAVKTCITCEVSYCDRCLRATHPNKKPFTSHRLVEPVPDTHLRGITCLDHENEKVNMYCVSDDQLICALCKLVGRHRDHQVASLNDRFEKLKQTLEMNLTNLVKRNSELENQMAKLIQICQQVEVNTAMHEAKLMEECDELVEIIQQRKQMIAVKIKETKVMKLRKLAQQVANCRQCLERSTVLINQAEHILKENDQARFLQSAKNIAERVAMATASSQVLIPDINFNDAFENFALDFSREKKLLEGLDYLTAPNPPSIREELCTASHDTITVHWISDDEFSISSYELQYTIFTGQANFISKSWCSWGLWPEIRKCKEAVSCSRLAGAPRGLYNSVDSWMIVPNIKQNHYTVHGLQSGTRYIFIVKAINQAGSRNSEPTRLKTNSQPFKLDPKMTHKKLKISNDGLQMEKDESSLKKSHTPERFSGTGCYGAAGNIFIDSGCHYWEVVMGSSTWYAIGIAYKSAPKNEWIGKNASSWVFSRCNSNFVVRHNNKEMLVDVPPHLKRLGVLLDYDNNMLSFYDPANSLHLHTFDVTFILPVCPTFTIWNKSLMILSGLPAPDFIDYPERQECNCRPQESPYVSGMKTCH

reep6_human REEP6 = reep6_human REEP6 (UniProt Q96HR9)
Sequence of reep6_human REEP6 (Q96HR9 whole entry): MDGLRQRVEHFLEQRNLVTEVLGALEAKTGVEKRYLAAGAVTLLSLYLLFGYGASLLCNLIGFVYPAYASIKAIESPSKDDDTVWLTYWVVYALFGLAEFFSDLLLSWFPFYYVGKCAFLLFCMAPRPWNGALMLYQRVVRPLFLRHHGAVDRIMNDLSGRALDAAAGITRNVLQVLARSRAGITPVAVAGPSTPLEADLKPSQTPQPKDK

Sequence of rpia_human RPIA (P49247 whole entry): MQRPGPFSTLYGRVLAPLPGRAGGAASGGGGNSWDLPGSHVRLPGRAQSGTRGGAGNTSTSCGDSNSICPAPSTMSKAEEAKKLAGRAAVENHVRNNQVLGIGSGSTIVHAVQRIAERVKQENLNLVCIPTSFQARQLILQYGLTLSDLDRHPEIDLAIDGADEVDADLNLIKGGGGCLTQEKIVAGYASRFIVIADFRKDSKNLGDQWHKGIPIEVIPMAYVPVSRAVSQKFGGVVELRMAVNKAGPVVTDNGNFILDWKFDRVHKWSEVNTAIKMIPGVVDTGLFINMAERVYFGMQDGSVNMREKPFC
Sequence of pnma5_human PNMA5 (Q96PV4 whole entry): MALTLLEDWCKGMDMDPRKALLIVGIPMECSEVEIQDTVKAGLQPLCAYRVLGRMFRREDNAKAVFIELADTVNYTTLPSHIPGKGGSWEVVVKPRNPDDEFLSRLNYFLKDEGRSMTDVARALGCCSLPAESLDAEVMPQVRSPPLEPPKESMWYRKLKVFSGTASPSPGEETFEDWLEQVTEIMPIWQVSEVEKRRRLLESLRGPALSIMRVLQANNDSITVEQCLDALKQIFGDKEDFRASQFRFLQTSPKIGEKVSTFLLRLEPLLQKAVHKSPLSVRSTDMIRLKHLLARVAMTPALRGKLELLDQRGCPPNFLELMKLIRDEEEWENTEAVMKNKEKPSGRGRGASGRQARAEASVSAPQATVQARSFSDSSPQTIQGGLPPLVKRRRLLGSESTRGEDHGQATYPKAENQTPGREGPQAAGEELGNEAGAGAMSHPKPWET
Sequence of zmat1_human ZMAT1 (Q5H9K5 whole entry): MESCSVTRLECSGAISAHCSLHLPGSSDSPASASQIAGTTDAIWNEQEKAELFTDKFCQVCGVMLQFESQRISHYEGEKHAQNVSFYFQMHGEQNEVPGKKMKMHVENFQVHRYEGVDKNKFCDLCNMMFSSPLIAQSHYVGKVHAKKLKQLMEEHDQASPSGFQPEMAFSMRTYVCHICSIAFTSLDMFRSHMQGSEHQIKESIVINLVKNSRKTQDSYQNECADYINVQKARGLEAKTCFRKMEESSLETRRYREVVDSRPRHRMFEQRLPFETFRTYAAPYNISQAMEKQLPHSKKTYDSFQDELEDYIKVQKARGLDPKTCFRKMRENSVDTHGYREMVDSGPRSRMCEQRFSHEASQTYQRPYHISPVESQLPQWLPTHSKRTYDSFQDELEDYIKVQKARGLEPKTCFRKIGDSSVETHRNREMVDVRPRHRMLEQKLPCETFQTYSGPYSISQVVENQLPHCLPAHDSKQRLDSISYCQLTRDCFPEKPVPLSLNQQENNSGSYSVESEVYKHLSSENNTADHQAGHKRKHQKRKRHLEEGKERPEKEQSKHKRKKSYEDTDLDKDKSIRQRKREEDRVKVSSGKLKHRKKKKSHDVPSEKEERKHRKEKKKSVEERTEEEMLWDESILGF
Sequence of pde9a_human PDE9A (O76083 whole entry): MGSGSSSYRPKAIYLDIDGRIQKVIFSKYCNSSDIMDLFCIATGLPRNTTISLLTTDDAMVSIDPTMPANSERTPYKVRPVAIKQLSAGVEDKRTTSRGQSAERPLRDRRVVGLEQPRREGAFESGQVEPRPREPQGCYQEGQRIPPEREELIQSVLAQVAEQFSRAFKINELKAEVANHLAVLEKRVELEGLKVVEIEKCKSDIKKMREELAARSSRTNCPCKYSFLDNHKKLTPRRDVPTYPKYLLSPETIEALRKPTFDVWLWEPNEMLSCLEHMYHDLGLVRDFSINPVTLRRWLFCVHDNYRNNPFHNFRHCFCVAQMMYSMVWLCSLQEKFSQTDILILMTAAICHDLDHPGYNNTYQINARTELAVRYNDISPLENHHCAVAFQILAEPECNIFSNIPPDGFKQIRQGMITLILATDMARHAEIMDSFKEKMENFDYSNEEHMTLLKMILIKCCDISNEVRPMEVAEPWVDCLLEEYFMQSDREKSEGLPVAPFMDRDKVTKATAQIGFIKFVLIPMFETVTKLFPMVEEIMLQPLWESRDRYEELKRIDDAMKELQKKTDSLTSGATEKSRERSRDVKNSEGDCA

With “Golgi reassembly-stacking protein 2 (Homo sapiens) (from UniProt Q9H8Y8) L320R” the “effect of a mutation on the interaction” value (dcor_human ODC1) was “disrupting interaction strength”, the “effect of a mutation on the interaction” value (pde9a_human PDE9A) was “with no effect” and the “effect of a mutation on the interaction” value (rpia_human RPIA) was “with no effect”. For the same substance, the “effect of a mutation on the interaction” value (pnma5_human PNMA5) was “with no effect”, the “effect of a mutation on the interaction” value (kctd9_human KCTD9) was “with no effect” and the “effect of a mutation on the interaction” value (zmat1_human ZMAT1) was “with no effect”. For the same substance, the “effect of a mutation on the interaction” value (traf4_human TRAF4) was “with no effect”, the “effect of a mutation on the interaction” value (ei2ba_human EIF2B1) was “with no effect” and the “effect of a mutation on the interaction” value (trim1_human MID2) was “with no effect”. The “effect of a mutation on the interaction” value (reep6_human REEP6) was “with no effect”.
